From article PMC8653965, “Direct Electrochemical Generation of Catalytically Competent Oxyferryl Species of Classes I and P Dye Decolorizing Peroxidases” (International Journal of Molecular Sciences, 2021)

Substrate: CCn1c(=NN=c2sc3cc(S(=O)(=O)O)ccc3n2CC)sc2cc(S(=O)(=O)O)ccc21
Assay: purified protein
Assay type: biochemical, Bacillus subtilis
Conditions: no H2O2, applied potential −0.190 V, aerobic (O2), pH 7.6, 298 K, 20 mM TRIS-HCl, 200 mM KCl, 25.0 °C

B1: BsDyP (Bacillus subtilis subsp. subtilis str. 168) (protein)
chain: IGASGLGGLAPLVQTAAKPSKKDEKEEEQIVPFYGKHQAGITTAHQTYVYFAALDVTAKDKSDIITLFRNWTSLTQMLTSGKKMSAEQRNQYLPPQDTGESADLSPSNLTVTFGFGPGFFEKDGKDRFGLKSKKPKHLAALPAMPNDNLDEKQGGGDICIQVCADDEQVAFHALRNLLNQAVGTCEVRFVNKGFLSGGKNGETPRNLFGFKDGTGNQSTKDDTLMNSIVWIQSGEPDWMTGGTYMAFRKIKMFLEVWDRSSLKDQEDTFGRRKSSGAPFGQKKETDPVKLNQIPSNSHVSLAKSTGKQILRRAFSYTEGLDPKTGYMDAGLLFISFQKNPDNQFIPMLKALSAKDALNEYTQTIGSALYACPGGCKKGEYIAQRLLES
notes: signal (Tat) peptide deleted; plasmid pVB4; expressed in E. coli Tuner; purified
With B1 the Km was 1.155 ± 0.100 mM, the kcat was 18 ± 1 s⁻¹ and the kcat/Km was 16000 M⁻¹ s⁻¹.
